Measured values taken from PMC9884275, “Metamorphism in TDP-43 prion-like domain determines chaperone recognition” (Nature Communications, 2023).

Key:
Details in all cases: both partners purified
DNAJC7 = target: T1, DNAJC7 (human, UniProt Q99615 1-494); assay: NMR titration; 15N-HSQC at 15 °C, 800 MHz; 25–35 μM 15N/13C-labelled PLD with HSP72 and a JDP at 1:2:2 molar ratio (PLD:HSP70:co-chaperone), NMR buffer with 10 mM DTT
T1 construct: DNAJC7, human, cDNA cloned into pET28a (GenScript); also called HSP40 (class C JDP)
T1 sequence (looked up): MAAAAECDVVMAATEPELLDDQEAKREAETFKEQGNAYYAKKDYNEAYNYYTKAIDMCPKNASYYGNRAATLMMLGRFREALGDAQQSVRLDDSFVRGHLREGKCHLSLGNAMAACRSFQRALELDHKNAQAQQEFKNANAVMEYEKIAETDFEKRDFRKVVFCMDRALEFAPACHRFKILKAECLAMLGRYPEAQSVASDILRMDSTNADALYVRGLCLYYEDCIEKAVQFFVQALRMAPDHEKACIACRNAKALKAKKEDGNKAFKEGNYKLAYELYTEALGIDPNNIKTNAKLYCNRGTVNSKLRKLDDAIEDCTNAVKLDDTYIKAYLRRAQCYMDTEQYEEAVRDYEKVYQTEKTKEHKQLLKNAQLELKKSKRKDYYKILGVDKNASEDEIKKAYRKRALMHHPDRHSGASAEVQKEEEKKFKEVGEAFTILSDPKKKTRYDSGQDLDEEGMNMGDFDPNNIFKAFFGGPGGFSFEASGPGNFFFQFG

DNAJB1 = target: T2, DNAJB1 (human, UniProt P25685 1-340); assay: as above
T2 construct: DNAJB1, human, cDNA cloned into pET28a (GenScript); also called HSP40 (class B JDP)
T2 sequence (P25685 whole entry): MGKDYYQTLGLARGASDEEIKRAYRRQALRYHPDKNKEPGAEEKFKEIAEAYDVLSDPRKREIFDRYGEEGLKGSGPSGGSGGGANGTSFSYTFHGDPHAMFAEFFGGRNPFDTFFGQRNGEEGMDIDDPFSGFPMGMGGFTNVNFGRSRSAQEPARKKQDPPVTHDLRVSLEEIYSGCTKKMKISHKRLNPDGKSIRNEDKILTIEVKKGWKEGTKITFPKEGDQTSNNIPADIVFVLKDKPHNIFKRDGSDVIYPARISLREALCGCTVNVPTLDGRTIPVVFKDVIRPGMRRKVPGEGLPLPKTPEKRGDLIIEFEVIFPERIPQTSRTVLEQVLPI

DNAJB4 = target: T3, DNAJB4 (human, UniProt Q9UDY4 1-337); assay: as above
T3 construct: DNAJB4, human, cDNA cloned into pET28a (GenScript); also called HSP40 (class B JDP)
T3 sequence (Q9UDY4 whole entry): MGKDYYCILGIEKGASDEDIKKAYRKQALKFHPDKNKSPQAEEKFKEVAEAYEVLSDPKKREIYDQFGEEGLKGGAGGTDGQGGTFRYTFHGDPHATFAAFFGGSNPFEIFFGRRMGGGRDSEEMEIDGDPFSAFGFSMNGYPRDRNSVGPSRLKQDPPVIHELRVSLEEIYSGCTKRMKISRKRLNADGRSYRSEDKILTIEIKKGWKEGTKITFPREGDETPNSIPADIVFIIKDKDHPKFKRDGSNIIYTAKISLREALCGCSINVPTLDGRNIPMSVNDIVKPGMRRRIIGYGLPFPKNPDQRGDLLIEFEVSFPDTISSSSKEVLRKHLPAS

DNAJA2 = target: T4, DNAJA2 (human, UniProt O60884 1-412); assay: NMR titration; 15N-HSQC at 15 °C, 800 MHz; 25–35 μM 15N/13C-labelled PLD in NMR buffer with 10 mM DTT (5 mM ZnCl2 for DNAJA2); unlabelled JDP co-chaperones added; signal intensity decay shown at 1:2 molar ratio
T4 construct: DNAJA2, human, cDNA cloned into pET28a (GenScript); 5 mM ZnCl2 and 10 mM DTT were added to its NMR samples; also called HSP40 (class A JDP)
T4 sequence (O60884 whole entry): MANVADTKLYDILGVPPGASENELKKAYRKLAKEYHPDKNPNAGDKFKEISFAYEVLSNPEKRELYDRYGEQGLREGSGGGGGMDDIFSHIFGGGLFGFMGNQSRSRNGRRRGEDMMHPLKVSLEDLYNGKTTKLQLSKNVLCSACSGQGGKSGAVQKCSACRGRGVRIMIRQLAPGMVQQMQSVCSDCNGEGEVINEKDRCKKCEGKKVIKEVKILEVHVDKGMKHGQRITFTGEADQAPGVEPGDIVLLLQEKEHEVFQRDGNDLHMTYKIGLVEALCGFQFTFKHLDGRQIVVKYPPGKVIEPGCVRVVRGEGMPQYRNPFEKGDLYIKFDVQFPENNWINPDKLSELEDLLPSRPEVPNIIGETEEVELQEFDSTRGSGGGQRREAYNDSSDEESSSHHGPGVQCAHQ

Measured: binding result

B1: TDP-43 prion-like domain (fragment 274-414 of human TDP-43) (domain or fragment, UniProt Q13148 274-414, looked up)
chain: GRFGGNPGGFGNQGGFGNSRGGGAGLGNNQGSNMGGGMNFGAFSINPAMMAAAQAALQSSWGMMGMLASQQNQSGPSGNNQNQGNMQREPNQAFGSGNNSYSGSNSGAAIGWGSASNAGSGSGFNGGFGSSMDSKSSGWGM
notes: TDP-43, human, UniProt Q13148, C-terminal prion-like domain, residues 274-414; 15N/13C-labelled for the NMR experiments; also called PLD; TDP-43 PLD; not shown: Thioredoxin (TXA), N-terminal, cleaved; His6, N-terminal, cleaved
binds: all assays above
